Experimental data reported in patent publication US20260234234A1 (QILU PUGET SOUND BIOTHERAPEUTICS, published 2026).
Positions count from the first letter of the chain named. Numbers in names are those of the source. Like-named read-outs stand apart in the source and are kept apart here. Each block holds one binder with its values, some of them ahead of it.

How the values were obtained:
[1] = target: hTSLP antigen, version not stated (human, UniProt Q969D9 29-159, limits assumed); test: cell-based or functional assay
[2] = target: T1, His6-tagged cyIL-33 (Ser112-Ile270), QB10976 (cynomolgus monkey); test: SPR, cyIL-33 analyte
T1 construct: Entry includes N-terminal Avitag, FLAG and His6 tags; isoform X1, NCBI XP_005581824; also called cyIL-33 antigen
T1 chain: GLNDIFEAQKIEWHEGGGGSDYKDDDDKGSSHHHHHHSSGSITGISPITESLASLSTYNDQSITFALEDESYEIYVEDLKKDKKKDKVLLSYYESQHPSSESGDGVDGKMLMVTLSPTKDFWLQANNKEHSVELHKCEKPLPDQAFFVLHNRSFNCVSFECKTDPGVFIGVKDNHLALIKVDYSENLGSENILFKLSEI

[3] = target: T2, Avitag_c-MYC_His6-tagged hIL-33 (Ser112-Thr270), QB10975 (human); test: SPR, captured antibody, hIL-33 analyte, 37 C, 1:1 fit
T2 construct: Entry includes N-terminal Avitag, c-MYC and His6 tags; reduced with DTT to the active form; also called active hIL-33; reduced hIL-33
T2 chain: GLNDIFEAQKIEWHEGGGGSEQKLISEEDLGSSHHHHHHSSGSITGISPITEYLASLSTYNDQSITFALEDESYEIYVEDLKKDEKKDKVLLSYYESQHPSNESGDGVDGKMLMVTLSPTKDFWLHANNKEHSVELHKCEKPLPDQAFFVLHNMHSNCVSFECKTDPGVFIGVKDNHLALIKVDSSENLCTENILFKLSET

[4] = target: T1, His6-tagged cyIL-33 (Ser112-Ile270), …; test: SPR, captured antibody, cyIL-33 analyte, 25 C, 1:1 fit
[5] = target: T1, His6-tagged cyIL-33 (Ser112-Ile270), …; test: cell-based or functional assay
[6] = target: T3, hIL-33 used in the cell-based assays of Example 13 (human, UniProt O95760 112-270); test: cell-based or functional assay
T3 sequence (looked up): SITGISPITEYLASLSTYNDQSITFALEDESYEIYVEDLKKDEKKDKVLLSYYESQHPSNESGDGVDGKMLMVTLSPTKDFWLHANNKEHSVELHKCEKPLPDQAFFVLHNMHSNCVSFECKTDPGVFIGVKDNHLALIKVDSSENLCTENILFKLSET

[7] = target: T4, Avitag_FLAG_His6_cyTSLP QB11633 with mutations of R127A + R130S (cynomolgus monkey); test: cell-based or functional assay
T4 chain: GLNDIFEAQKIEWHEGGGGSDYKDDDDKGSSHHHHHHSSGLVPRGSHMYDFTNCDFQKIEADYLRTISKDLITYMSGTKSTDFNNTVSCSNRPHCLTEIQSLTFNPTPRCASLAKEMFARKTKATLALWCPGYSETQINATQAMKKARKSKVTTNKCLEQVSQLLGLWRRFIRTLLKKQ

[8] = target: T5, Avitag_FLAG_His6_cyTSLP QB11632 (wild type) (cynomolgus monkey); test: cell-based or functional assay
T5 chain: T4 chain with A147R, S150R

[9] = target: T6, Avitag_FLAG_His6_cyTSLP QB10974 with deletion of 126KRRKR130 (cynomolgus monkey); test: cell-based or functional assay
T6 chain: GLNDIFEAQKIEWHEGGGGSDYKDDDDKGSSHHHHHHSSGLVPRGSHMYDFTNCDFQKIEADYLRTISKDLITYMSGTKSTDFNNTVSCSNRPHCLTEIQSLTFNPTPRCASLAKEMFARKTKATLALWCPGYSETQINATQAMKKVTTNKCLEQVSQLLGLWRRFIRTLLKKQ

[10] = target: T7, Avitag_c-MYC_His6_hTSLP QB11631 with mutations of R127A + R130S (human); test: SPR (Biacore)
T7 construct: Substitutions and tags already in the entry; also called hTSLP (R127A+R130S)

[11] = target: T8, Avitag_c-MYC_His6_hTSLP QB11033 with deletion of 126KRRKR130 (human); test: cell-based or functional assay
T8 chain: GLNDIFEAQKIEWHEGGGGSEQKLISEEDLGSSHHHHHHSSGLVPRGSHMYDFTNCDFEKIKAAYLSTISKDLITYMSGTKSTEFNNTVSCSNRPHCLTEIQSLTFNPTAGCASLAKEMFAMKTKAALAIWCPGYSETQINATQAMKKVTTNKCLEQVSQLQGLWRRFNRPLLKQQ

[12] = target: Avitag_c-MYC_His6_hTSLP (wild type) QB11630 (human); test: cell-based or functional assay
[13] = target: T7, Avitag_c-MYC_His6_hTSLP QB11631 with …; test: cell-based or functional assay
[14] = target: T7, Avitag_c-MYC_His6_hTSLP QB11631 with …; test: SPR (Biacore), hTSLP (R127A+R130S) antigen
[15] = target: T8, Avitag_c-MYC_His6_hTSLP QB11033 with …; test: cell-based or functional assay
[16] = target: Avitag_c-MYC_His6_hTSLP (wild type) QB11630 (human); test: cell-based or functional assay; remark: listed apart in the source
[17] = target: T7, Avitag_c-MYC_His6_hTSLP QB11631 with …; test: cell-based or functional assay; remark: listed apart in the source
[18] = target: T4, Avitag_FLAG_His6_cyTSLP QB11633 with …; test: cell-based or functional assay
[19] = target: T5, Avitag_FLAG_His6_cyTSLP QB11632 (wild …); test: cell-based or functional assay
[20] = target: T6, Avitag_FLAG_His6_cyTSLP QB10974 with …; test: cell-based or functional assay
[21] = target: T9, cyTSLP antigen, version not stated (cynomolgus monkey, UniProt A0A7N9CAT7 29-159); test: SPR (Biacore)
T9 construct: Used where the text only says cyTSLP

[22] = target: T7, Avitag_c-MYC_His6_hTSLP QB11631 with …; test: SPR (Biacore), hTSLP (R127A+R130S) antigen; remark: listed apart in the source
[23] = target: T2, Avitag_c-MYC_His6-tagged hIL-33 …; test: SPR competition, antibody titrated against 10 nM hIL-33, over immobilised hST2-Fc

B2: anti-hIL-33 IgG4 antibody QB11465 (antibody)
heavy: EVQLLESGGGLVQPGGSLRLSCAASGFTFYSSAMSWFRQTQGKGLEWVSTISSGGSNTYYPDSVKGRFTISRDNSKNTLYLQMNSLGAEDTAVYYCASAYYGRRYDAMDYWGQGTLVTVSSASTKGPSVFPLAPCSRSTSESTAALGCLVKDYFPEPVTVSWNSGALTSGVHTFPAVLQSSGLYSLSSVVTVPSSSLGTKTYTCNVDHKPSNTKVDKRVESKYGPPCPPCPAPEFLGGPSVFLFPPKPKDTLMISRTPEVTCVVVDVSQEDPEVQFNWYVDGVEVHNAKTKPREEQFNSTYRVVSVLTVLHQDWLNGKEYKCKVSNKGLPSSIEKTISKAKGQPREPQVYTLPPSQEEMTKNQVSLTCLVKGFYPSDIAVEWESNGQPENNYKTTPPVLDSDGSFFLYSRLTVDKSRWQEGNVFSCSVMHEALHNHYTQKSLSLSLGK
light: DVVMTQSPPSLPVTLGQSASISCKSSESLLHSNANTYLYWFQQRPGQSPQLLIYRGSNLASGVPDRFSGSGSGTDFTLKISRVEAEDVGVYYCMQHLRNPYTFGQGTKVEIKRTVAAPSVFIFPPSDEQLKSGTASVVCLLNNFYPREAKVQWKVDNALQSGNSQESVTEQDSKDSTYSLSSTLTLSKADYEKHKVYACEVTHQGLSSPVTKSFNRGEC
notes: also called lead anti-hIL-33 IgG4 antibody
fold improvement of affinity against parental antibody QB11119 [2]: ~3 fold | Kd [3]: 0.209 nM | koff [3]: 0.000695 s⁻¹ | kon [3]: 3.33e+06 M⁻¹ s⁻¹ | Kd [4]: 5.14 nM | koff [4]: 0.00191 s⁻¹ | kon [4]: 371000 M⁻¹ s⁻¹ | IC50, inhibition of cyIL-33-induced p38 MAPK phosphorylation in ILC2s (FIG. 17D) [5]: 4.4 nM | IC50, inhibition of hIL-33-induced IFNγ secretion from primary human NK cells [6]: 1 nM | IC50, inhibition of hIL-33-induced hIL-5 secretion from primary human ILC2 cells [6]: 2.39 nM | IC50, inhibition of hIL-33-induced p38 MAPK phosphorylation in ILC2s (FIG. 17C) [6]: 0.33 nM | IC50, inhibition of hIL-33-induced p38 MAPK phosphorylation in ILC2s (FIG. 17D) [6]: 0.82 nM

B3: anti-hTSLP antibody QB11341, humanized clone 135F1 (antibody, human IgG4 S228P, kappa, V domains shown)
VH: EVQLVESGGGLVQPGGSLRLSCAASGFDFSSYWISWVRQAPGKGPEWIASIDIDIDIADYASWAKGRFTISRDNSKNTLYLQMNSLRAEDTAVYYCVRNLGLWGPGTLVTVSS
VL: DIQMTQSPSSLSASVGDRVTITCQSSQNVYDKDALAWYQHKPGKRPKLLIYEASKLASGVPSRFSGSGSGTHFTLTISSLQPEDAATYYCAGTFIDNIYTFGGGTKVEIKR
notes: also called QB1341; top clone
IC50 (nM) for inhibition of CCL17 secretion [7]: 0.93 nM | IC50 (nM) for inhibition of CCL17 secretion [8]: 0.888 nM | IC50 (nM) for inhibition of CCL17 secretion [9]: 0.712 nM | fold lower binding affinity against comparator antibody QB10985 [10]: ~10 fold | IC50 (nM) for inhibition of CCL17 secretion [11]: 0.361 nM | IC50 (nM) for inhibition of CCL17 secretion [12]: 0.333 nM | IC50 (nM) for inhibition of CCL17 secretion [13]: 0.626 nM | Kd [14]: 1.76 nM | koff [14]: 0.00148 s⁻¹ | kon [14]: 842000 M⁻¹ s⁻¹

B6: humanized anti-hIL-33 antibody QB11004 (antibody, human IgG1, kappa, V domains shown)
VH: EVQLLESGGGLVQPGGSLRLSCAASGFTFYSSAMSWVRQTQGKGLEWVSTISSGGSNTYYPDSVKGRFTISRDNSKNTLYLQMNSLGAEDTAVYYCASAYYGRRYDAMDYWGQGTLVTVSS
VL: DVVMTQSPPSLPVTLGQSASISCKSSKSLLHSNGNTYLYWFQQRPGQSPQLLIYRMSNLASGVPDRFSGSGSGTDFTLKISRVEAEDVGVYYCMQHLENPYTFGQGTKVEIKR
IC50 [23]: 0.927 nM | Kd [3]: 0.387 nM | koff [3]: 0.000628 s⁻¹ | kon [3]: 1.62e+06 M⁻¹ s⁻¹ | Kd [4]: 6.22 nM | koff [4]: 0.000992 s⁻¹ | kon [4]: 160000 M⁻¹ s⁻¹

B7: anti-hIL-33 antibody QB11119 (antibody, human IgG1, kappa, L234A L235A, V domains shown)
VH: B6 VH
VL: B6 VL with G34A
notes: hIgG1 with L234A+L235A+P329A; G29A in the VL against QB11061; also called parental antibody QB11119
Kd [3]: 0.397 nM | koff [3]: 0.000604 s⁻¹ | kon [3]: 1.52e+06 M⁻¹ s⁻¹ | Kd [4]: 15.8 nM | koff [4]: 0.00206 s⁻¹ | kon [4]: 131000 M⁻¹ s⁻¹

B8: anti-hIL-33 antibody QB11061 (antibody, human IgG1, kappa, V domains shown)
VH: B6 VH with Q41P
VL: B6 VL
notes: QB11004 with Q41P in VH-FW2
Kd [3]: 0.306 nM | koff [3]: 0.000567 s⁻¹ | kon [3]: 1.85e+06 M⁻¹ s⁻¹ | Kd [4]: 4.75 nM | koff [4]: 0.000893 s⁻¹ | kon [4]: 188000 M⁻¹ s⁻¹

The next lines start with the values.

IC50, inhibition of hTSLP-induced CCL17 release from human monocytes [1]: 4.24 nM
B1: rabbit anti-hTSLP monoclonal antibody clone 135F1 (antibody, V domains shown)
VH: QEQLEESGGDLVKPEGSLTLTCKASGFDFSSYWISWVRQAPGKRPEWIACIDSDIDSADYASWAKGRFTMSRTSSTTVTLQMTSLTAADTATYFCVRNLGLWGPGTLVTVSS
VL: AQVLTQTASPVSAAVGGTVTINCQSSQNVYDKDALAWYQHKPGQRPKLLIYEASKLASGVPSRFSGSGAGTQFTLTISGVQCDDAATYYCAGTFIDNIYTFGGGTEVVVKG

IC50 (nM) for inhibition of CCL17 secretion [15]: 0.0921 nM | IC50 (nM) for inhibition of CCL17 secretion [16]: 0.0757 nM | IC50 (nM) for inhibition of CCL17 secretion [17]: 0.286 nM | IC50 (nM) for inhibition of CCL17 secretion [18]: 0.464 nM | IC50 (nM) for inhibition of CCL17 secretion [19]: 0.254 nM | IC50 (nM) for inhibition of CCL17 secretion [20]: 0.251 nM
B4: anti-hTSLP antibody QB11548, humanized clone 135F1 after yeast display (antibody, human IgG4 S228P, kappa, V domains shown)
VH: B3 VH
VL: B3 VL with K55R, F94R

fold binding difference between hTSLP and cyTSLP [21]: < 10 fold | fold lower binding affinity against comparator QB10985 [10]: 8.8 fold | Kd [22]: 1.62 nM | koff [22]: 0.000852 s⁻¹ | kon [22]: 527000 M⁻¹ s⁻¹
B5: anti-hTSLP QB11060, humanized antibody clone hz-3C-V6 (antibody, human IgG4 S228P, kappa, V domains shown)
VH: QVQLVQSGPEVKKPGSSVKVSCKASGYIFTDYAMHWVRQRPGQGLEWMGTFIPLLDTSDYNQNFKGRATITADKSTSTAYMELSSLRSEDTAVYYCARMGVTHSYVMDAWGQGTLVTVSS
VL: EIVLTQSPGTLSLSPGERATLSCRASQPISISVHWYQQKPGEAPRLLIYFASQSISGIPDRFSGSGSGTDFTLTISRLESEDFAVYYCQQTFSLPYTFGTGTKVEIKR
notes: hz-3C with D9P + S108L in the VH
